Measurements as given in the DeepSol protein solubility set.

Assay: soluble on expression in E. coli; label from the status in PepcDB or PDB records
In the case of “MGSDKIHHHHHHMLQAFATQYIVESLGCETEIIDYTADRFNKHYPLDLGLFRFLIDAYQEKKKKAARTKFNDATFQNNIAKRKTSYVEFIHRRLHNIKEVSGFSNLCKLGSEYDAVLIGSDQKWHPGFSFGVDSSFRFVPKSVRTISYATSLGVSEYPKSYWRTSRKAWSRIDYLSVREKTGADIISKVCDNNIHAEVVVDPTYLISCEDWKKIFPVEKKFEDKYIFCYFLGNDEESKKCARRYANLKGLKLVSVVSNESYSEIDQEYADFLMTGESPDSFVNWIRGAECVFTDSFHGTAFSIMNEKQIYVFYRKNTGVKLQRHSRIDDILSLWEIKYRLITDKHREWDSYQEQPIDYTLVTQKVQSERERSMKFLKAALTF”, the “soluble on expression in E. coli” value is reported as “not soluble”.
For “MSHYDILQAPVISEKAYSAMERGVYSFWVSPKATKTEIKDAIQQAFGVRVIGISTMNVPGKRKRVGRFIGQRNDRKKAIVRLAEGQSIEALAGQA”, the “soluble on expression in E. coli” value was “soluble”.
In the case of “GPGSMNCFGVRNWWRNNLPELQLLNPFCSFTIQELSFGEPHMYINYTPTDQRMIRLAGATEDECEDIMEACITYGMNHAIIERPRTDDGGDLINQPAITSFGYTESFMSKLEVSPPADIGQRTPEGVDDPGQKPRVYPRNVGFKIMP”, the “soluble on expression in E. coli” value is reported as “not soluble”.
In the case of “MKLKDCVMIKKIFALPVIEQISPVLSRRKLDELDLIVVDHPQVKASFALQGAHLLSWKPAGEEEVLWLSNNTPFKNGVAIRGGVPVCWPWFGPAAQQGLPAHGFARNLPWTLKSHHEDADGVALTFELTQSEETKKFWPHDFTLLAHFRVGKTCEIDLESHGEFETTSALHTYFNVGDIAKVSVSGLGDRFIDKVNDAKENVLTDGIQTFPDRTDRVYLNPQDCSVINDEALNRIIAVGHQHHLNVVGWNPGPALSISMGDMPDDGYKTFVCVETAYASETQKVTKEKPAHLAQSIRVAKRLEHHHHHH”, the “soluble on expression in E. coli” value is reported as “not soluble”.
For “MEIGVVGKPNVGKSTFFSAATLVDVEIANYPFTTIEANVGVTYAITDHPCKELGCSPNPQNYEYRNGLALIPVKMVDVAGLVPGAHEGRGLGNKFLDDLRMASALIHVVDATGKTDPEGQPTDYHDPVEDIEFLEREIDYWIYGILSKGWDKFAKRIKLQKIKLESAIAEHLSGIGVNENDVWEAMHKLNLPEDPTKWSQDDLLAFASEIRRVNKPMVIAANKADAASDEQIKRLVREEEKRGYIVIPTSAAAELTLRKAAKAGFIEYIPGASEFKVLRDMSEKQKRALMVIKEKVLDRFGSTGVQEVINRVVFDLLKLIPVYPVHDENKLTDQFGNVLPHVFLMKKGSTPRDLAFKVHTDLGKGFLYAINARTKRRVGEDYELQFNDIVKIVSVTR”, the “soluble on expression in E. coli” value was “soluble”.
In the case of “MAHHHHHHMQYQRAALVIASPALTQREVEFTKSAWLAGLRPDQRTAQQMREVSVEFPLLSRDVVVVRCGGSVVTAAIATALVEPTPQRPKHGLLHFSVRRLHTERDSPAADGSTQKNLVAFLERLVRTGGVIDTAGLCVLPGQKVWSLTVDVTIMNDEGNCNDAAVWAVIALLMHHRRPELTVRGSSVIVHPPHEREPVPLSVQHTPLPFTFAITMAPTEREKALNHQRALSATGSSSGPQPSSGVGNSIDTASAFAIDGTSPQPLGVVVDPTTAESLAAASSIVVAINAEGQVCTVVKAEGCSIHLKDLNACIEAAGTLAPRVLDLIKVAMEAHDERRKTAMKGQFAWAQKRSGVGKVEQACVKKIKTET”, the “soluble on expression in E. coli” value is reported as “not soluble”.
In the case of “MSLSDNDLQRRILDAVDAGFDAQLATTRDFVAIPSTRGAEGPCQDMIGDLLRQRGYEVDDWHIDLDDLKDLRGYGPIEHDFSKARTVVGTYRPSTNAGRSLILQGHCDVVPAGPLEMWDTPPFSPVIKQGRMYGRGACDMKSGTIGALYALDAIKAAGLRPTGRIHFQSVIEEESTGVGALSTLQRGYRADACFIPEPTGGKMVRSQVGVIWFRLKVRGYPVHVATAGTGSNAITAAYHLIDALGKLEEEWNRRAASDPHFKTLAHPINFNPGIIKGGDWASSVPAWCDVDCRIAILPGWSVADHQAEILACVSAAARDHRFLSNNPPQVEWSGFLSEGYELKNAAEPEAAFGKAYQAVYGSEVEDLVFTALTDTRFYGLNYNIPSLCFGASGEAMHGFNEYIDLESLRQSTKATALFIAEWCGVEPAEGHHHHHH”, the “soluble on expression in E. coli” value is reported as “soluble”.
In the case of “MPAEPQKSTEAGSVAPEKKLKACCACPETKRVRDACIIENGEEKCGKLIEAHKACMRAAGFNI”, the “soluble on expression in E. coli” value is reported as “soluble”.
For “MATHKLSFFEKLANTFGALYRHQAQQFPRRLAILKAVGKHELAPPRSADIPAIKADWAKLQKFIETKQYVNLSIKESLVYSAVALEVVFWFFVGEMIGRRYIFGYIVPANYVSKDTKAKVAEKKRLAALEA”, the “soluble on expression in E. coli” value was “not soluble”.
